A short description of data set [1]: immunoblot of total EGFR. As to conditions: glycan lost; control: wild-type Flag-EGFR. (In general: In western blotting, separated proteins are transferred to a membrane and probed.)
Data set [2] in a line: RT-qPCR of HCV RNA, 48 h infection. As to conditions: glycan lost; control: EGFR KO Huh7 complemented with wild-type EGFR.
Data set [3] is described as follows: confocal EGFR/Lamp1 colocalisation after EGF, Huh7. To be noted: glycan lost; control: wild-type EGFR.
Data set [4] has as its target T1, His6-SNAIL (UniProt O95863 1-264). Nature of the data set: EMSA; text: SNAIL lost ability to bind mutant probe; legend and Methods leave open whether labeled or competitor; Beyotime EMSA kit GS005 per manufacturer; 8% native PAGE; buffer, salt, pH and temperature not stated. To be noted: protein: recombinant; tags: His6 (pET28a); label: 5' FAM per Methods (legend also mentions mutant probe added at 300 nM); blunt. For orientation: A gel shift assay detects complexes by their altered migration in electrophoresis.

In data set [5] the target is T1, His6-SNAIL. Description: EMSA; increasing SNAIL; Beyotime EMSA kit GS005 per manufacturer; 8% native PAGE; buffer, salt, pH and temperature not stated. To be noted: protein: recombinant; tags: His6 (pET28a); label: 5' FAM; blunt.
The target in data set [6] is T1, His6-SNAIL. Description: competition; 10-fold excess (300 nM) unlabeled probe abolished binding to WT-FAM probe; Beyotime EMSA kit GS005 per manufacturer; 8% native PAGE; buffer, salt, pH and temperature not stated. As to conditions: protein: recombinant; tags: His6 (pET28a); blunt.

T1 sequence (O95863 whole entry): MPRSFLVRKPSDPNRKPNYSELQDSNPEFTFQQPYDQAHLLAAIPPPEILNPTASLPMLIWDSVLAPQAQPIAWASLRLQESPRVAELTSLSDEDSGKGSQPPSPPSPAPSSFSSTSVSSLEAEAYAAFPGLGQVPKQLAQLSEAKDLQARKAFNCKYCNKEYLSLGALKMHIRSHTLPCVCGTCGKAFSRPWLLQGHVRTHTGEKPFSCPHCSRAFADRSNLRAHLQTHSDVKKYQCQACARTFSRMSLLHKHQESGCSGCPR

Take “Epidermal growth factor receptor (EGFR, ErbB1, HER1): N352Q”: in data set [1], the expression_or_secretion entry is on record as “no change”. Further, the “other: viral replication” value in data set [2] was “decreases”. Moreover, in data set [3], the localisation_or_trafficking result is recorded as “decreases”.

B1: FUT8 promoter Mut probe (dsDNA)
DNA 1: TACACTTCCTGACGTGAGAGGGGTCAGAGTGTGGGT
DNA 2: ACCCACACTCTGACCCCTCTCACGTCAGGAAGTGTA
As to B1, the binding result in data set [4] is “no binding”.

B2: FUT8 promoter WT probe (-295 to -260) (dsDNA)
DNA 1: TACACTTCCTGACGTGGCAGGTGAGAGAGTGTGGGT
DNA 2: ACCCACACTCTCTCACCTGCCACGTCAGGAAGTGTA
As for B2, the binding result in data set [5] is given as “binds”.

B3: FUT8 promoter WT unlabeled competitor (dsDNA)
DNA 1: B2 DNA 1
DNA 2: B2 DNA 2
Consider B3, for which, in data set [6], the binding result is “binds”.
